Reference: the supplement of paper PMC7125110
± gives the standard error. Variants at the floor of the assay were thinned out.

B1: glmS ribozyme (parent)
chain: AUAAAAGCGCCAGAACUACAGAAAUGUAGUUGACGAGGAGGAGGUUUAUCGAAUUUUCGGCGGAUGCCUCCAAA

Columns and labels:
Details in all cases: with glucosamine-6-phosphate
[1] = variants of: B1; assay: self-cleavage kobs at 160 uM GlcN6P; higher = faster cleavage; RNA array
Procedure, shortened: (§1)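 Glucosamine-6-phosphate in HEPES/KCl/Mg(OAc)2 buffer, at 40 μM to 10 mM, was flowed over barcoded ribozyme variants transcribed in situ by E. coli RNA polymerase on sequenced MiSeq chips. Tracking was through a hybridised Cy3 probe at 37 °C. kobs, kcat and KM came from exponential decay fits and weighted Michaelis–Menten fits of normalised per-tile medians.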

[2] = variants of: B1; assay: self-cleavage kobs at 640 uM GlcN6P; higher = faster cleavage; RNA array
Procedure, shortened: as §1

[3] = variants of: B1; assay: self-cleavage kobs at 2500 uM GlcN6P; higher = faster cleavage; RNA array
Procedure, shortened: as §1

[4] = variants of: B1; assay: self-cleavage kobs at 10000 uM GlcN6P; higher = faster cleavage; RNA array
Procedure, shortened: as §1

| Variant | self-cleavage kobs at 160 uM GlcN6P [1] | self-cleavage kobs at 640 uM GlcN6P [2] | self-cleavage kobs at 2500 uM GlcN6P [3] | self-cleavage kobs at 10000 uM GlcN6P [4] |
| --- | --- | --- | --- | --- |
| G37A C50G U69C | 5.92e-05 ± 1.9e-05 s⁻¹ | 7.07e-05 ± 2.7e-05 s⁻¹ |  |  |
| G35U G37C U45C | < 1e-05 s⁻¹ |  | < 1e-05 s⁻¹ |  |
| G9U A53C | < 1e-05 s⁻¹ | < 1e-05 s⁻¹ |  | < 1e-05 s⁻¹ |
| C10U G32A G59A G60A |  | < 1e-05 s⁻¹ |  |  |
| A6U G35U A42C | < 1e-05 s⁻¹ | < 1e-05 s⁻¹ |  |  |
| A15G C58G G63C C68G | 0.000162 ± 4.4e-05 s⁻¹ |  |  |  |
| A36C G51A C70G |  | 9.36e-05 ± 3.3e-05 s⁻¹ |  |  |
| C16G G29C A33U A48C | < 1e-05 s⁻¹ | < 1e-05 s⁻¹ |  |  |
| G13U G29A A52C | < 1e-05 s⁻¹ | < 1e-05 s⁻¹ | < 1e-05 s⁻¹ |  |
| G44U G62A | < 1e-05 s⁻¹ | < 1e-05 s⁻¹ | < 1e-05 s⁻¹ |  |
| U49G G51U | < 1e-05 s⁻¹ | < 1e-05 s⁻¹ | < 1e-05 s⁻¹ | < 1e-05 s⁻¹ |
| G9A C10U | < 1e-05 s⁻¹ | < 1e-05 s⁻¹ | < 1e-05 s⁻¹ | < 1e-05 s⁻¹ |
| C11U A15G C34U U57C C71A | < 1e-05 s⁻¹ | < 1e-05 s⁻¹ | < 1e-05 s⁻¹ |  |
| C50G U57G | 0.000283 ± 0.00012 s⁻¹ |  |  |  |
| C8U C34G G41A | < 1e-05 s⁻¹ | < 1e-05 s⁻¹ |  |  |
| A36C A39C A53G |  | < 1e-05 s⁻¹ | < 1e-05 s⁻¹ |  |
| A33U C68G C71A | < 1e-05 s⁻¹ | < 1e-05 s⁻¹ |  |  |
| G9A C11U C16U G63A U65G C68G | 4.96e-05 ± 1.6e-05 s⁻¹ | 7.82e-05 ± 1.8e-05 s⁻¹ | 3.97e-05 ± 1.5e-05 s⁻¹ |  |
| G37U G38C C71U | < 1e-05 s⁻¹ | < 1e-05 s⁻¹ |  |  |
| C10U G13C C16G G32A | < 1e-05 s⁻¹ |  |  |  |
| G29C U30C G37C C70G | 9.14e-05 ± 2.9e-05 s⁻¹ | 0.000358 ± 0.00011 s⁻¹ | 0.000111 ± 3.5e-05 s⁻¹ |  |
| G9C G29A G51U | < 1e-05 s⁻¹ | < 1e-05 s⁻¹ | < 1e-05 s⁻¹ |  |
| U30C U56C A64U | < 1e-05 s⁻¹ | < 1e-05 s⁻¹ |  |  |
| G35U G41U G43A | < 1e-05 s⁻¹ | < 1e-05 s⁻¹ | < 1e-05 s⁻¹ |  |
| U31G A39C U45A | 0.000229 ± 6.4e-05 s⁻¹ | 0.000642 ± 0.0001 s⁻¹ | 0.00161 ± 0.00025 s⁻¹ |  |
| C16U U55G U69G | 9.72e-05 ± 2.1e-05 s⁻¹ | 8.62e-05 ± 2.4e-05 s⁻¹ | 5.05e-05 ± 1.1e-05 s⁻¹ | 4.21e-05 ± 1.4e-05 s⁻¹ |

| Variant | self-cleavage kobs at 160 uM GlcN6P [1] | self-cleavage kobs at 640 uM GlcN6P [2] | self-cleavage kobs at 2500 uM GlcN6P [3] | self-cleavage kobs at 10000 uM GlcN6P [4] |
| --- | --- | --- | --- | --- |
| G44U U49A U54A G62U | < 1e-05 s⁻¹ | < 1e-05 s⁻¹ | < 1e-05 s⁻¹ |  |
| U46G U49A C50A A64G | < 1e-05 s⁻¹ | < 1e-05 s⁻¹ |  |  |
| A14G G35U G66U | < 1e-05 s⁻¹ | < 1e-05 s⁻¹ |  |  |
| A14G A42G G59C |  | < 1e-05 s⁻¹ |  |  |
| U30C G63U C68G |  | 9.11e-05 ± 1.9e-05 s⁻¹ | 5.6e-05 ± 1.4e-05 s⁻¹ |  |
| U47A G63C | < 1e-05 s⁻¹ | < 1e-05 s⁻¹ | < 1e-05 s⁻¹ |  |
| G9A U30G G37U | < 1e-05 s⁻¹ |  |  |  |
| G13U G21U G37C | < 1e-05 s⁻¹ |  |  |  |
| G9U G29C | < 1e-05 s⁻¹ | < 1e-05 s⁻¹ | < 1e-05 s⁻¹ | < 1e-05 s⁻¹ |
| C11A C50G C61A |  | 0.000272 ± 7.9e-05 s⁻¹ | 0.000188 ± 3.7e-05 s⁻¹ |  |
| A12C A36G U69C | < 1e-05 s⁻¹ |  |  |  |
| U31C G44A U46G G59A C70U |  | < 1e-05 s⁻¹ | < 1e-05 s⁻¹ |  |
| C10U U56A G62A U65A U69G | 3.94e-05 ± 1.6e-05 s⁻¹ |  |  |  |
| G35U A53C | < 1e-05 s⁻¹ |  | < 1e-05 s⁻¹ | < 1e-05 s⁻¹ |
| C50A C67U C70G |  | 6.04e-05 ± 2.3e-05 s⁻¹ |  |  |
| G7A C8A U49G | < 1e-05 s⁻¹ |  | < 1e-05 s⁻¹ | < 1e-05 s⁻¹ |
| A33G G37U G59C | < 1e-05 s⁻¹ |  | < 1e-05 s⁻¹ |  |
| G51C C67G | < 1e-05 s⁻¹ |  |  | < 1e-05 s⁻¹ |
| A15G C58A C70U | 0.000138 ± 2.8e-05 s⁻¹ | 8.95e-05 ± 1.1e-05 s⁻¹ | 0.000182 ± 4.8e-05 s⁻¹ | 0.000281 ± 5.3e-05 s⁻¹ |
| A36C U46A | < 1e-05 s⁻¹ |  | < 1e-05 s⁻¹ | < 1e-05 s⁻¹ |
| A6U G44U U55C | < 1e-05 s⁻¹ | < 1e-05 s⁻¹ | < 1e-05 s⁻¹ |  |
| A33U G37C U46C | < 1e-05 s⁻¹ | < 1e-05 s⁻¹ | < 1e-05 s⁻¹ |  |
| U49C C58A G60U | < 1e-05 s⁻¹ | < 1e-05 s⁻¹ | < 1e-05 s⁻¹ |  |
| A14U G43U U46A | < 1e-05 s⁻¹ | < 1e-05 s⁻¹ | < 1e-05 s⁻¹ |  |
| C58A G60U |  | < 1e-05 s⁻¹ | < 1e-05 s⁻¹ | < 1e-05 s⁻¹ |
| U49C C50U G51A |  | < 1e-05 s⁻¹ | < 1e-05 s⁻¹ |  |
